The target of this assay is T1, HLA-A*02:01 (human).
T1 construct: MHC monomer captured on streptavidin plates; also called peptide-receptive MHC molecules; MHC class I
Briefly: UV-ligand exchange ELISA (anti-b2m), yield grade. On the technique in general: In an ELISA, binding on a coated surface is turned into a signal by an enzyme label.

Protocol: Candidate peptides for T cell based therapies according to the present invention were further tested for their MHC binding capacity (affinity). The individual peptide-MHC complexes were produced by UV-ligand exchange, where a UV-sensitive peptide is cleaved upon UV-irradiation, and exchanged with the peptide of interest as analyzed. […] To determine the yield of the exchange reaction, an ELISA was performed based on the detection of the light chain (β2m) of stabilized MHC complexes.
96 well MAXISorp plates (NUNC) were coated over night with 2 ug/ml streptavidin in PBS at room temperature, washed 4× and blocked for 1h at 37° C. in 2% BSA containing blocking buffer. […] Peptide-MHC monomers of the UV-exchange reaction were diluted 100 fold in blocking buffer. Samples were incubated for 1 h at 37° C., washed four times, incubated with 2 ug/ml HRP conjugated anti-β2m for 1h at 37° C., washed again and detected with TMB solution that is stopped with NH2SO4. Absorption was measured at 450 nm.

B1: GLLDLPFRVGV (peptide)
peptide: GLLDLPFRVGV
With B1, the peptide exchange yield lay in the range of 50 to 75%.

B2: SLLNQDLHWSL (peptide)
peptide: SLLNQDLHWSL
In turn, B2 came in with a peptide exchange yield of 50 to 75%.

The values above are taken from patent US20180346538A1 (IMMATICS BIOTECHNOLOGIES, published 2018).
